Measured values taken from paper doi:10.1101/2022.09.26.507364 (bioRxiv, 2022).

Target: T1, Long neurotoxin 1 (3L21_OXYSC) from O. scutellatus scutellatus (coastal taipan), recombinant long 3FTX (Oxyuranus scutellatus scutellatus)
T1 chain: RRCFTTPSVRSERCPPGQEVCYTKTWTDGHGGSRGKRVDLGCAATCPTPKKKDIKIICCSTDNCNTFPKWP
Experiment: SPR

B1: Centi-3FTX-D09 (antibody, V domains shown)
VH: EVQLVESGGGFVQPGGSLRLSCAASGFTFSNFDMHWVRQSPGKGLEWVSGLDHSGGAHYAGSVKGRFTISREDAKNSLDLQMNNLRVDDTAVYFCVRGTLYHYTSGSYYSDAFDIWGQGTLVTVSS
VL: EIVLTQSPSSLSASVGDRVTITCQASQDISNYLNWYQQKPGKAPKLLIYAASSLESGVPSRFSGSGSGTDFTLTISSQQPEDFATYYCQQANSFPYTFGQGTKVEIK
Kd: 490 pM
